Source: PMC8673838, “MCPH1 inhibits Condensin II during interphase by regulating its SMC2-Kleisin interface” (eLife, 2021)
Non-standard residues stand in square brackets, D forms with d. No end group written: not given here. 5‑FAM = 5-carboxyfluorescein label; pS = N[C@@H](COP(=O)(O)O)C(=O)O

Key:
Conditions in all cases: both partners purified
[1] = target: T1, human condensin II pentameric complex (SMC2, SMC4, NCAPH2, NCAPD3, NCAPG2) (human, UniProt O95347 1-1197; Q9NTJ3 1-1288; Q6IBW4 1-605; P42695 1-1498; Q86XI2 1-1143); test: SEC; complex of condensin II (wild type or Q-loop mutant) with MCPH1_(1-435)MBP purified by gel filtration on Superose 6 10/300 in 20 mM Tris pH 7.5, 150 mM NaCl, 1 mM DTT, for ATPase assays
T1 construct: SMC2, human, subunit of condensin II; SMC4, human, subunit of condensin II; NCAPH2, human, kleisin subunit of condensin II; NCAPD3 (CAP-D3), human, HAWK subunit of condensin II; NCAPG2 (CAPG2), human, HAWK subunit of condensin II; It says only 'strep-tagged condensin II'; also called pentameric condensin II; strep-tagged condensin II; source: insect cells, purified as previously described (Kong …)

[2] = target: T2, condensin II with Q-loop mutation (SMC2 Q147L, SMC4 Q229L) (human, UniProt O95347 1-1197; Q9NTJ3 1-1288; Q6IBW4 1-605; P42695 1-1498; Q86XI2 1-1143, SMC2 Q147L | SMC4 Q229L); test: as above
T2 construct: SMC2, human, Q-loop mutant; SMC4, human, Q-loop mutant; NCAPH2, human; NCAPD3, human; NCAPG2, human; also called ATPase hydrolysis deficient Q-loop mutant condensin II; source: insect cells, purified as previously described (Kong et al., 2020); copies: + + + +

[3] = target: T1, human condensin II pentameric complex …; test: pull-down; strep-tagged condensin complexes (0.1 µM) with at least a 10-fold molecular excess of MBP MCPH1 constructs or MBP, Strep-tactin sepharose, 20 mM Tris pH 7.5, 150 mM NaCl, 10 % glycerol, 1 mM DTT; five washes; Coomassie or silver stain
[4] = target: T1, human condensin II pentameric complex …; test: pull-down; strep-tagged full-length MCPH1 and condensin II separately purified, mixed on strep-tactin sepharose; SDS-PAGE, silver stain
[5] = target: T1, human condensin II pentameric complex …; test: fluorescence polarisation; competition; 0.63 µM condensin II and 0.3 µM 5-FAM peptide fixed, unlabelled peptide in two-fold series; 20 mM Tris pH 7.5, 200 mM NaCl, 1 mM DTT; fit for directly competitive binding
[6] = target: T1, human condensin II pentameric complex …; test: fluorescence polarisation; direct binding; 0.3 µM 5-FAM peptide, 0.625-5 µM condensin II complex; 20 mM Tris pH 7.5, 200 mM NaCl, 1 mM DTT; room temperature

T1 sequence (O95347 whole entry, chain 1 of 4): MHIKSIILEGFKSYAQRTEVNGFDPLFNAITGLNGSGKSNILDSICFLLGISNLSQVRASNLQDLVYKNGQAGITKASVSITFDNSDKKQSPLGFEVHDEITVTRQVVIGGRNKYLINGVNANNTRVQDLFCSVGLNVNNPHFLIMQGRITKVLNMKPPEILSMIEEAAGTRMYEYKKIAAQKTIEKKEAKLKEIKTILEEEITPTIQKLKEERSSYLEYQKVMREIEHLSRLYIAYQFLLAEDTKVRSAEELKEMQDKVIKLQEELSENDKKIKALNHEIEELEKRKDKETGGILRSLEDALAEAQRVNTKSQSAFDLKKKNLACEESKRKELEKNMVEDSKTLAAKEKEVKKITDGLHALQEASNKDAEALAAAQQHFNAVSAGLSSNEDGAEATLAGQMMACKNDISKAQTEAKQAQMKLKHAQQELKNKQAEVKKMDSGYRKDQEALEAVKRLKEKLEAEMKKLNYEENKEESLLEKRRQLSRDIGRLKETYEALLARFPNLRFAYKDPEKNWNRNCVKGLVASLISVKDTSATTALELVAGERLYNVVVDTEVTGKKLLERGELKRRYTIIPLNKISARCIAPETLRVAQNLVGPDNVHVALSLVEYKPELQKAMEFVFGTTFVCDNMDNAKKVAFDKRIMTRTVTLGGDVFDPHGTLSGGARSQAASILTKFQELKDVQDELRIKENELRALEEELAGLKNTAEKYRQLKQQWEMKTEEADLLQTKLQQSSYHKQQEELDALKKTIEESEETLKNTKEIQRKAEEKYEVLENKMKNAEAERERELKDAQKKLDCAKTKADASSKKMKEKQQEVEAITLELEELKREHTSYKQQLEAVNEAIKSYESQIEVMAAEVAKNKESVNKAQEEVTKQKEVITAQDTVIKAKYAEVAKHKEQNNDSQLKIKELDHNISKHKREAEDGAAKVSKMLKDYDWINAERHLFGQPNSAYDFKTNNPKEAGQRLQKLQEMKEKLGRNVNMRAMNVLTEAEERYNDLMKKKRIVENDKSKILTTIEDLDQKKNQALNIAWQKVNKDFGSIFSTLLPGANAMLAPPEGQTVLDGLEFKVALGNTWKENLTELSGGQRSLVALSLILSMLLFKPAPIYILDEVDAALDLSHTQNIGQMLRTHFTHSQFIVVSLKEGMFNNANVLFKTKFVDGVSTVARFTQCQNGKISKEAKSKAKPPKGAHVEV
T1 sequence (Q9NTJ3 whole entry, chain 2 of 4): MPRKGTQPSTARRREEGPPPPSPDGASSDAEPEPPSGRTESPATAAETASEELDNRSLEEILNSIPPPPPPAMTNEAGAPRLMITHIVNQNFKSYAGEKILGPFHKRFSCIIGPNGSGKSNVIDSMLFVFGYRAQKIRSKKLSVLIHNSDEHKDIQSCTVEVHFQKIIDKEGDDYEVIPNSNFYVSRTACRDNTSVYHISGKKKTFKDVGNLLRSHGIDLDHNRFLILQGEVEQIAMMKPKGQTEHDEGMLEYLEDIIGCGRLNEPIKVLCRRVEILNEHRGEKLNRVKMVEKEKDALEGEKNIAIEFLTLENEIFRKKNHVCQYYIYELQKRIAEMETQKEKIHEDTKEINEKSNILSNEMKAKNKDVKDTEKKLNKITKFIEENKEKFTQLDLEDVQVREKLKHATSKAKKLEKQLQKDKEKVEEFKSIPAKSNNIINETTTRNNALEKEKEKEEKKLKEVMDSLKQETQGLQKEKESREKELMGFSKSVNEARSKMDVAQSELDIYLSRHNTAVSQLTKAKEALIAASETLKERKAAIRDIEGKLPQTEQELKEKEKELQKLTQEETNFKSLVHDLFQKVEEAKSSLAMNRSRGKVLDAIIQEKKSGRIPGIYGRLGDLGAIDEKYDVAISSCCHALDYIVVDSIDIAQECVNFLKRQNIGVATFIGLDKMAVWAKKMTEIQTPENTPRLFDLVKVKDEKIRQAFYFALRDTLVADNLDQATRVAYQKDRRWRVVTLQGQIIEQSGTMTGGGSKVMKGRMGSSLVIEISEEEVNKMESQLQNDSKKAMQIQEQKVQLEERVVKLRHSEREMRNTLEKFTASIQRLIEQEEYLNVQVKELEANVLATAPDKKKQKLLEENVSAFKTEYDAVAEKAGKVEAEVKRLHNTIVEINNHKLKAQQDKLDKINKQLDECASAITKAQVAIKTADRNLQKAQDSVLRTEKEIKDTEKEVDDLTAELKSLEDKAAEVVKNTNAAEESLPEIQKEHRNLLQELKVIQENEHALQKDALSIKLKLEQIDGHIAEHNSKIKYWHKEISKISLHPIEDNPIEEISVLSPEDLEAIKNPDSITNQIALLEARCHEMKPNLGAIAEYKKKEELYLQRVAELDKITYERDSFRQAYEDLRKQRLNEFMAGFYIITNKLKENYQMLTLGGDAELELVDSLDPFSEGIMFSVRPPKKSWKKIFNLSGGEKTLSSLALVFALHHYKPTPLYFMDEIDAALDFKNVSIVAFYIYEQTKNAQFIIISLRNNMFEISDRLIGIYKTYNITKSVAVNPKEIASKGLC
T1 sequence (Q6IBW4 whole entry, chain 3 of 4): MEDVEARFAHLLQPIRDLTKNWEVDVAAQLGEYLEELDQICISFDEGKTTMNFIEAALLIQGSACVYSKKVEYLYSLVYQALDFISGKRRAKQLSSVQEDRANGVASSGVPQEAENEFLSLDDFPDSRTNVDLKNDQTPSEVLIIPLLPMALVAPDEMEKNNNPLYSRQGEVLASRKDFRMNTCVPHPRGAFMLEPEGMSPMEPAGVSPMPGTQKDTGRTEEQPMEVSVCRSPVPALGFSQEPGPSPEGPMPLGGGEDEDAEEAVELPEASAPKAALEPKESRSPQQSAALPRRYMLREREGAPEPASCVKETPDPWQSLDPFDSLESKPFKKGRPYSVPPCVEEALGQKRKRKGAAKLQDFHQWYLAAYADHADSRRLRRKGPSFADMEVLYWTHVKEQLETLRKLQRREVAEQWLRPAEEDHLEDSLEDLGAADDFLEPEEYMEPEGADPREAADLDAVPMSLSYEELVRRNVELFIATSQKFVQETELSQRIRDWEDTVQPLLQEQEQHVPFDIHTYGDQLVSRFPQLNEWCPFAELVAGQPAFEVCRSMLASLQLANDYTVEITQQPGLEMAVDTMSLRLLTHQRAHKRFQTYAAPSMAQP
T1 sequence (P42695 whole entry, chain 4 of 4): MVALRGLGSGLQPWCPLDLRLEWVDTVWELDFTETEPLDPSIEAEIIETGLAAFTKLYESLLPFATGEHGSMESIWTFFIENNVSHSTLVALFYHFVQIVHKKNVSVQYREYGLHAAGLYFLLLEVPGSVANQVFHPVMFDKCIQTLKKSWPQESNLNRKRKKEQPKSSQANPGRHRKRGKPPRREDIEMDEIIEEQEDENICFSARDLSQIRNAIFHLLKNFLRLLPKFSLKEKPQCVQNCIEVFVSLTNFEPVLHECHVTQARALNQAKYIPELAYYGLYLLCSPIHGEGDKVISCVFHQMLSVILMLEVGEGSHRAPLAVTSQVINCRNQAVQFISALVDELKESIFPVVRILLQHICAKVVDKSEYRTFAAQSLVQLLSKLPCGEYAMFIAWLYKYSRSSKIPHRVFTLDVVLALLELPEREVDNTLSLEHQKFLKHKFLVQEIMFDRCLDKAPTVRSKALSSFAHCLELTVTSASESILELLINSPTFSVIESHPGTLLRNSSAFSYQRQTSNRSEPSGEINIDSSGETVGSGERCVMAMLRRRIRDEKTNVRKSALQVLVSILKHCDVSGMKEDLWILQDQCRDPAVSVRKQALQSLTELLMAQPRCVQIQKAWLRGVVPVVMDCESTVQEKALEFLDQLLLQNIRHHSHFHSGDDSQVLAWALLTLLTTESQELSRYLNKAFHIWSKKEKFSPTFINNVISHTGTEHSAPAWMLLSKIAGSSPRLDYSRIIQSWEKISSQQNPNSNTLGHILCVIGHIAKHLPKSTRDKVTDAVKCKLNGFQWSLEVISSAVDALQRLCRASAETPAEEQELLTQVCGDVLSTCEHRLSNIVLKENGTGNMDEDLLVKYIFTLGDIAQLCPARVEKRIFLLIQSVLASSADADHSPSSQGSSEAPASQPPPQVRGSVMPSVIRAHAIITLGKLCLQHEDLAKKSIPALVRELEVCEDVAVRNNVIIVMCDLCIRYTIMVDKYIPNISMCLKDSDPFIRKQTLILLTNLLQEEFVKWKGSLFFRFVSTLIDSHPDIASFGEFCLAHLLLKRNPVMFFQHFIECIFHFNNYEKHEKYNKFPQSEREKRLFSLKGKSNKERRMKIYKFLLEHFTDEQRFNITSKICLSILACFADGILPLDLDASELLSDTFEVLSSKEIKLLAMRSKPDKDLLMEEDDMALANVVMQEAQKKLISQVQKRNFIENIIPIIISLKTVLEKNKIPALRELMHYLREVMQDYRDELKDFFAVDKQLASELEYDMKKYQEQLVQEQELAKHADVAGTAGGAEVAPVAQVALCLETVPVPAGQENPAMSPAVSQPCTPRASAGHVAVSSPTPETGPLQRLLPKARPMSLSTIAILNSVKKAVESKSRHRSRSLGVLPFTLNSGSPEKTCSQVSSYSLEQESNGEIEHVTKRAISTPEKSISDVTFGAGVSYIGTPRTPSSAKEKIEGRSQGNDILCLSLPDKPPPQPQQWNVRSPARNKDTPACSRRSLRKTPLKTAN
T2 sequence (O95347 whole entry Q147L, chain 1 of 4): as the sequence (O95347 whole entry, chain 1 of 4) above, with Q147L counted along it
T2 sequence (Q9NTJ3 whole entry Q229L, chain 2 of 4): as the sequence (Q9NTJ3 whole entry, chain 2 of 4) above, with Q229L counted along it
T2 sequence (Q6IBW4 whole entry, stated change not applied, chain 3 of 4): as the sequence (Q6IBW4 whole entry, chain 3 of 4) above
T2 sequence (P42695 whole entry, stated change not applied, chain 4 of 4): as the sequence (P42695 whole entry, chain 4 of 4) above

B1: MCPH1_(1-435)MBP after removal of the N-terminal 6xHis tag (domain or fragment, human, UniProt Q8NEM0 1-435, looked up)
chain: MAAPILKDVVAYVEVWSSNGTENYSKTFTTQLVDMGAKVSKTFNKQVTHVIFKDGYQSTWDKAQKRGVKLVSVLWVEKCRTAGAHIDESLFPAANMNEHLSSLIKKKRKCMQPKDFNFKTPENDKRFQKKFEKMAKELQRQKTNLDDDVPILLFESNGSLIYTPTIEINSRHHSAMEKRLQEMKEKRENLSPTSSQMIQQSHDNPSNSLCEAPLNISRDTLCSDEYFAGGLHSSFDDLCGNSGCGNQERKLEGSINDIKSDVCISSLVLKANNIHSSPSFTHLDKSSPQKFLSNLSKEEINLQRNIAGKVVTPDQKQAAGMSQETFEEKYRLSPTLSSTKGHLLIHSRPRSSSVKRKRVSHGSHSPPKEKCKRKRSTRRSIMPRLQLCRSEDRLQHVAGPALEALSCGESSYDDYFSPDNLKERYSENLPPESQL
notes: Same construct as m11, His tag cut off by TEV before gel filtration with condensin II; source: E. coli BL21 (DE3) pLysS, purified (Ni-NTA, ion exchange or heparin, SEC), treated with TEV protease; not shown: His6, N-terminal, cleaved; MBP, C-terminal, kept
- binding result [1]: binds
- binding result [2]: binds

B2: MBP-MCPH1_(1-435) (domain or fragment, human, UniProt Q8NEM0 1-435, looked up)
chain: B1 chain
notes: source: E. coli BL21 (DE3) pLysS, purified (Ni-NTA, ion exchange or heparin); not shown: MBP, N-terminal, kept
- binding result [3]: binds

B3: strep-tagged full-length human MCPH1 (natural protein, UniProt Q8NEM0 1-835, looked up)
chain: MAAPILKDVVAYVEVWSSNGTENYSKTFTTQLVDMGAKVSKTFNKQVTHVIFKDGYQSTWDKAQKRGVKLVSVLWVEKCRTAGAHIDESLFPAANMNEHLSSLIKKKRKCMQPKDFNFKTPENDKRFQKKFEKMAKELQRQKTNLDDDVPILLFESNGSLIYTPTIEINSRHHSAMEKRLQEMKEKRENLSPTSSQMIQQSHDNPSNSLCEAPLNISRDTLCSDEYFAGGLHSSFDDLCGNSGCGNQERKLEGSINDIKSDVCISSLVLKANNIHSSPSFTHLDKSSPQKFLSNLSKEEINLQRNIAGKVVTPDQKQAAGMSQETFEEKYRLSPTLSSTKGHLLIHSRPRSSSVKRKRVSHGSHSPPKEKCKRKRSTRRSIMPRLQLCRSEDRLQHVAGPALEALSCGESSYDDYFSPDNLKERYSENLPPESQLPSSPAQLSCRSLSKKERTSIFEMSDFSCVGKKTRTVDITNFTAKTISSPRKTGNGEGRATSSCVTSAPEEALRCCRQAGKEDACPEGNGFSYTIEDPALPKGHDDDLTPLEGSLEEMKEAVGLKSTQNKGTTSKISNSSEGEAQSEHEPCFIVDCNMETSTEEKENLPGGYSGSVKNRPTRHDVLDDSCDGFKDLIKPHEELKKSGRGKKPTRTLVMTSMPSEKQNVVIQVVDKLKGFSIAPDVCETTTHVLSGKPLRTLNVLLGIARGCWVLSYDWVLWSLELGHWISEEPFELSHHFPAAPLCRSECHLSAGPYRGTLFADQPAMFVSPASSPPVAKLCELVHLCGGRVSQVPRQASIVIGPYSGKKKATVKYLSEKWVLDSITQHKVCAPENYLLSQ
notes: MCPH1, human, full length; pLIB MCPH1 from Genscript; also called full-length MCPH1; microcephalin; source: High Five insect cells (baculovirus), purified (StrepTrap, SEC)
- binding result [4]: binds

Binder: CGESSYDDYFSPDNLKER (source: synthetic peptide (Genscript)) [MCPH1_(407-424) peptide, wild-type, unlabelled]
- Kd [5]: 5.3 ± 1 µM

B4: MBP-MCPH1_(348-469) (domain or fragment, human, UniProt Q8NEM0 348-469, looked up)
chain: RPRSSSVKRKRVSHGSHSPPKEKCKRKRSTRRSIMPRLQLCRSEDRLQHVAGPALEALSCGESSYDDYFSPDNLKERYSENLPPESQLPSSPAQLSCRSLSKKERTSIFEMSDFSCVGKKTR
notes: MCPH1, human, residues 348-469; This construct is named in the results only; also called His-MBP-MCPH1 348-469; source: E. coli, purified; not shown: MBP, N-terminal, kept
- binding result [3]: binds

B5: MCPH1_(407-424) peptide phosphorylated at serine 417 (peptide)
peptide: CGESSYDDYF[pS]PDNLKER
notes: S417 is phosphoserine; also called MCPH1pS417; source: synthetic peptide (Genscript)
- Kd [5]: 53 ± 8 µM

B6: MBP-MCPH1_(196-435) (domain or fragment, human, UniProt Q8NEM0 196-435, looked up)
chain: QMIQQSHDNPSNSLCEAPLNISRDTLCSDEYFAGGLHSSFDDLCGNSGCGNQERKLEGSINDIKSDVCISSLVLKANNIHSSPSFTHLDKSSPQKFLSNLSKEEINLQRNIAGKVVTPDQKQAAGMSQETFEEKYRLSPTLSSTKGHLLIHSRPRSSSVKRKRVSHGSHSPPKEKCKRKRSTRRSIMPRLQLCRSEDRLQHVAGPALEALSCGESSYDDYFSPDNLKERYSENLPPESQL
notes: as for B2
- binding result [3]: binds

B7: 5-FAM-labelled MCPH1_(407-424) peptide (peptide)
peptide: {5‑FAM}-CGESSYDDYFSPDNLKER
notes: also called 5FAM-MCPH1; source: synthetic peptide (Genscript)
- Kd [6]: 0.64 µM
